Key:
[1] = target: RAGE (receptor for advanced glycation end products), endogenous in MDA-MB-231 cells (human (endogenous in MDA-MB-231)) (UniProt Q15109)
[2] = target: RAGE (receptor for advanced glycation end products), endogenous in MDA-MB-231 cells (human (endogenous in MDA-MB-231)) (UniProt Q15109); remark: listed apart in the source

UniProt Q15109, sequence (Q15109 23-404): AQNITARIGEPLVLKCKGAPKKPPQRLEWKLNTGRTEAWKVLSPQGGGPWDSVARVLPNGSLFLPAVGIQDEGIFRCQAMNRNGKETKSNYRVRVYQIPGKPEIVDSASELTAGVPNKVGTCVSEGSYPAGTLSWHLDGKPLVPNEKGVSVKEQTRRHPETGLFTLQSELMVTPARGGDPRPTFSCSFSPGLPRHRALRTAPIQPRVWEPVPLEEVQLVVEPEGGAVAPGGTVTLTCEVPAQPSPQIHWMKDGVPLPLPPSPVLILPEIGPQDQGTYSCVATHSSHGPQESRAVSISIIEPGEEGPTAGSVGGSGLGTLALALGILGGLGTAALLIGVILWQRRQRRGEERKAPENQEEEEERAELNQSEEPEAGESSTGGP

Substance | cell viability of ASA-pretreated MDA-MB-231 cells after removal of Ac-APE1/Ref-1 with an anti-APE1/Ref-1 antibody (2 ug) [1] [%] | cytoplasmic histone-associated DNA fragmentation in ASA-pretreated MDA-MB-231 cells after removal of Ac-APE1/Ref-1 with an anti-APE1/Ref-1 antibody (2 ug) (% of the control level) [1] | phosphorylation of p38 MAPK at Tyr182 in MDA-MB-231 cells treated with 5 mM ASA (3 h to 24 h) [2] [%]
recombinant human acetylated APE1/Ref-1 (apurinic apyrimidinic endonuclease 1/redox factor-1) (from UniProt P27695 1-318) (natural protein) | 80 | 33 | 
secreted acetylated APE1/Ref-1 from ASA/TSA-treated MDA-MB-231 cells (from UniProt P27695 1-318) (natural protein) |  |  | 62
